Results on one substance are retold here after patent publication CN118076384A.

One may read the Kd as a measure of binding affinity in units of concentration.

This test addresses PDL1 on MDA MB-231 human breast cancer cells (human) (UniProt Q9NZQ7). The test can be described thus: flow cytometry on MDA MB-231 cells, anti-human IgG Fc secondary antibody. On the technique in general: A flow cytometer gives signals particle by particle.
Sequence of UniProt Q9NZQ7 (Q9NZQ7 19-290): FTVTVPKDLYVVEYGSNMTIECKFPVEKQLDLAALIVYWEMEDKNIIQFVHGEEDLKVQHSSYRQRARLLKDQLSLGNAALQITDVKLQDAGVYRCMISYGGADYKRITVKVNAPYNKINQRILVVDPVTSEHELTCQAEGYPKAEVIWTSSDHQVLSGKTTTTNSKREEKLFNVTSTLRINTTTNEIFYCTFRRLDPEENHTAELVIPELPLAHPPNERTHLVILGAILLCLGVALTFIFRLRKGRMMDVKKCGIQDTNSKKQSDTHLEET

德瓦鲁单抗(durvalumab) (antibody) had a Kd of 0.167 nM. This counts as sub-nanomolar.
